One molecule from patent publication US20230129812A1, “COMPOSITIONS AND METHODS FOR TREATING PULMONARY HYPERTENSION” (Acceleron Pharma Inc., priority 2020, published 2023) can be followed below.

Assay [1] addresses GDF8, O14793. The experiment in a line: SPR (Biacore); receptor-Fc captured by anti-Fc antibody, ligand injected. The note with it: remark: other sources report otherwise.
Assay [2] addresses GDF8, O14793. The experiment in a line: SPR (Biacore); receptor-Fc captured by anti-Fc antibody, ligand injected; † Very low signal. The note with it: remark: other sources report otherwise. Background: SPR reads the build-up and loss of mass on a sensor chip optically.

Chain of GDF8, O14793 (O14793 267-375 limits assumed): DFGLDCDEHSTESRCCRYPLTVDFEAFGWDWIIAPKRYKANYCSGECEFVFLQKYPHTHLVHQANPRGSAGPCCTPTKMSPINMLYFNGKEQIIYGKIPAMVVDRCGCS

B1: ALK4-Fc homodimer, P36896 24-126 (Fc fusion, not shown: a dimerising Fc or GST)
chain: SGPRGVQALLCACTSCLQANYTCETDGACMVSIFNLDGMEHHVRTCIPKVELVPAGKPFYCLSSEDLRNTHCCYTDYCNRIDLRVPSGHLKEPEHPSMWGPVE
For orientation: koff means the first-order rate constant of dissociation. As usually defined, the kon is the second-order rate constant of association. A high value points to faster complex formation. The Kd is the constant that tells how readily two partners part at equilibrium. Low readings indicate tighter binding, high ones weaker binding. On to B1, for which, in assay [1], the koff came to 0.0019 s⁻¹ and the kon was 130000 M⁻¹ s⁻¹. The molecule also displayed a Kd in assay [2] of 15 nM.
